Source: patent US7410767

Experiments:
[1] = biological target: T1, HLA-E (as used in the in vitro peptide binding assay and in immunoprecipitation) (human), P13747; test: in vitro peptide binding assay (ratio of optical densities); row .221-B*5501
[2] = biological target: T1, HLA-E (as used in the in vitro peptide …); test: in vitro peptide binding assay (ratio of optical densities); row .221-A*3601
[3] = biological target: T1, HLA-E (as used in the in vitro peptide …); test: in vitro peptide binding assay (ratio of optical densities); row .221-A*0201
[4] = biological target: T1, HLA-E (as used in the in vitro peptide …); test: in vitro peptide binding assay (ratio of optical densities); row .221-A*0211
[5] = biological target: T1, HLA-E (as used in the in vitro peptide …); test: in vitro peptide binding assay (ratio of optical densities); row .221-A*2403
[6] = biological target: T1, HLA-E (as used in the in vitro peptide …); test: in vitro peptide binding assay (ratio of optical densities); row .221-A*2501

VTAPRTLLL (modifications not checked)
Concentration of peptide required to obtain 50% of binding to HLA-E [1]: > 100 µM

VMAPRTLLL (modifications not checked)
Concentration of peptide required to obtain 50% of binding to HLA-E [2]: 0.3 µM

VMAPRTLVL (modifications not checked)
Concentration of peptide required to obtain 50% of binding to HLA-E [3]: 0.06 µM | Concentration of peptide required to obtain 50% of binding to HLA-E [4]: 0.06 µM | Concentration of peptide required to obtain 50% of binding to HLA-E [5]: 0.06 µM | Concentration of peptide required to obtain 50% of binding to HLA-E [6]: 0.06 µM
